Test [1] concerns the target T1, human brain natriuretic peptide, cyclic BNP (1-32c) (human, cyclic: ring closed by a disulfide bond between the two cysteine residues; biotinylated or acridinium-labelled in some assays).
T1 construct: also called hBNP; hBNP 1-32
As to the kind of experiment: BIAcore SPR, cAb captured on goat anti-human Fc, BNP in solution, 25 C. On the technique in general: In SPR one partner is held on a chip, and binding of the other changes the refractive index at the surface.
Protocol: The carboxymethyl-dextran biosensor is activated with an 8 minute injection of a 1:1 mixture of 0.4 M EDC and 0.1 NHS at 20 μL/minute. GAHFc in 10 mM sodium acetate (pH 5.0) is coupled to the activated surface with a 10 minute injection. The surface is then deactivated with 1 M ethanolamine pH 8.5 for 8 minutes followed by another 10 minute injection of GAHFc.
A frozen (−80° C.) aliquot of BNP in dH₂O at 100 μM is diluted into SPR Running Buffer to a concentration of 100 μM.
The sample solution is then switched back to SPR running buffer for another ˜7 hours. The surface is then regenerated with three 33 second pulses of 100 mM phosphoric acid at a flow rate of 100 μL/min.

Test [2] deals with T1, human brain natriuretic peptide, cyclic …. As to the kind of experiment: KinExA, solution phase. (Kinetic exclusion samples the free partner from a solution-phase mixture.)
For test [3] the target is unchanged. As to the kind of experiment: … sandwich CMIA; capture 106.3AM1 on microparticles, detection 3-631-436-acridinium; second particle type.
Protocol: An aliquot containing a calibrator solution was delivered to the same well of the reaction vessel as the microparticles to form a reaction mixture. The calibrator solution contained hBNP full-length peptide. The microparticles coated with the capture antibody in a Tris/BSA diluent were pipetted by the sampling probe into the appropriate wells of the reaction vessel in the sampling center. […] After the incubation, the reaction mixture was washed with the […] ® Line Diluent to remove any of the calibrator that was not captured. The […] ® Line Diluent is commercially available from Abbott Laboratories, Abbott Park, Ill.
(§1) The mAb-Acridinium-conjugates at about 50-100 ng/mL were dispensed into the reaction vessel and incubated for approximately 4 minutes at a temperature of about 37° C. After the incubation, the reaction vessel was washed with the […] ® Line Diluent to remove the unbound materials.
A solution of hydrogen peroxide and then sodium hydroxide was added to the reaction vessel and the chemiluminescent signal was measured by the chemiluminescent microparticle immunoassay (CMIA) optical assembly of the […] ® instrument.
For test [4] the target is unchanged. Put plainly: … sandwich CMIA; capture 106.3AM1 on microparticles, detection 3-631-436-acridinium.
Protocol: An aliquot containing a calibrator solution was delivered to the same well of the reaction vessel as the microparticles to form a reaction mixture. The calibrator solution contained hBNP full-length peptide. The microparticles coated with the capture antibody in a Tris/BSA diluent were pipetted by the sampling probe into the appropriate wells of the reaction vessel in the sampling center. […] After the incubation, the reaction mixture was washed with the […] ® Line Diluent to remove any of the calibrator that was not captured.
as §1
The […] ® system measures the acridinium signals which are typically measured in relative light units (hereinafter “rlu's”). Measurements were made in triplicate.
The target is the same in test [5]. Put plainly: Biacore SPR, antibody captured on goat anti-mouse Fc, BNP injected, 1:1 Langmuir fit.
Protocol: GAMFc in 10 mM sodium acetate (pH 5.0) is coupled to the activated surface with a 10 minute injection. The surface is then deactivated with 1 M ethanolamine pH 8.5 for 8 minutes followed by another 10 minute injection of GAMFc. This is followed with a biosensor conditioning of ten 60 second injections of 150 mM H₃PO₄ at a flow rate of 30 μL/min. ˜14 kRU, resonance units, of GAMFc is coupled to the biosensor in each flow cell.
After loading each Ab onto the biosensor, all flow cells are allowed to equilibrate for 5-6 minutes with SPR running buffer at a flow rate of 75 μL/min before a 150 μL injection of BNP or running buffer followed by 360 seconds of dissociation time. Subsequently, the flow rate is changed to 30-100 μL/min and the surface is then regenerated with three 33-60 second pulses of 100-150 mM phosphoric acid at a flow rate of 30-100 μL/min.
For test [6] the target is unchanged. Put plainly: surface plasmon resonance (BIAcore).
The target is the same in test [7]. Put plainly: off-rate assay on yeast-displayed scFv; improvement of koff over 3-631-436 wt.
Test [8] has the same target. As to the kind of experiment: off-rate assay on yeast-displayed scFv by flow cytometry: biotinylated cyclic BNP (1-32c), chase with unlabelled BNP 1-32c, SA:PE, first order decay fit.

The source of these data is patent US20080124811A1 (AbbVie / Abbott, published 2008).

The term Kd denotes the free concentration of one partner at which half of the binding sites on the other are occupied at equilibrium, for simple one-to-one binding. As a reminder, the koff is the rate constant with which the complex falls apart. A lower koff goes with slow dissociation. As usually defined, the kon is a measure of how fast the partners come together. A low value points to slow association.

B1: wild-type 106.3 chimeric antibody (cAb) (antibody, human IgG1, V domains shown)
VH: QIQLVQSGPELRKPGETVKISCKGSGYTFTHYGINWVKQTPRKDLKWMGWINTHTGEPIYADDFKGRFAFSLETSANTAYLQINNLNNGDMGTYFCTRSHRFGLDYWGQGTSVTVSS
VL: DNVLTQSPPSLAVSLGQRATISCKASQSVDYNGDSYLNWYQQKPGQPPKFLIYAASNLESGIPARFSGSGSGTDFNLNIHPVEEEDAATYYCQQSNEDPFTFGSGTKLEIK
notes: Chimeric mouse variable domains on human IgG1/human kappa; also called anti-BNP WT/WT
For the molecule B1, in test [1], the Kd is 19 pM, the off-rate (koff) amounted to 0.00015 s⁻¹ and the kon is 7.8e+06 M⁻¹ s⁻¹. Besides, in test [2], the affinity, expressed as Kd, was 1.7 pM.

B2: 106.3 AM1 chimeric antibody (antibody, V domains shown)
VH: QIQLVQSGPELRKPGETVKISCKGSGYTFTHYGINWVKQTPRKDLKWMGWINTHTGEAYYADDFKGRFAFSLETSANTAYLQINNLNNGDMGTYFCTRSHRFGLDYWGQGTSVTVSS
VL: DNVLTQSPPSLAVSLGQRATISCKANWPVDYNGDSYLNWYQQKPGQPPKFLIYAASNLESGIPARFSGSGSGTDFNLNIHPVEEEDAATYYCQQSNEDPFTFGSGTKLEIK
modifications: Conjugated to acridinium or biotinylated in the sandwich assays (Examples 4 and 7); the sites are not defined.
notes: PTA-6987; Acridinium-conjugated or biotinylated in the sandwich assays
In test [1], B2 had a dissociation constant (Kd) of 1.9 pM, a dissociation rate constant (koff) of 2.4e-05 s⁻¹ and a kon of 1.3e+07 M⁻¹ s⁻¹. Moreover, in test [3], the “Ratio B/A (RLU at 30 pg/mL over 0 pg/mL)” value came to 1, the “Ratio C/A (RLU at 300 pg/mL over 0 pg/mL)” value was determined as 5.5, the “Ratio D/A (RLU at 1000 pg/mL over 0 pg/mL)” value was determined as 40.5 and the “Ratio E/A (RLU at 2000 pg/mL over 0 pg/mL)” value came to 132. In test [4], the “Ratio B/A (RLU at 30 pg/mL over 0 pg/mL)” value stood at 1.6, the “Ratio C/A (RLU at 300 pg/mL over 0 pg/mL)” value came to 17.5, the “Ratio D/A (RLU at 1000 pg/mL over 0 pg/mL)” value came out at 126 and the “Ratio E/A (RLU at 2000 pg/mL over 0 pg/mL)” value is 394. The molecule also had an equilibrium dissociation constant (Kd) in test [2] of 9.3 pM.

B3: 3-631-436 (mIgG2bκ, IgG name AM1) (antibody, V domains shown)
VH: QVQLQQPGAELVRPGASVKLSCKASGYTFTSYWMNWVKQRPEQGLEWIGRIDPYDSETHYNQKFKDKAILTVDKSSSTAFVQLTSLTSEDSAVYYCVSDGYWGAGTTVTVSS
VL: DVVMTQTPLTLSVTTGQPASISCKSSQSLLDSDGKTYLNWLFQRPGESPKLLIYVVSKLESGVPDRFTGSGSGTDFTLKISRVEAEDLGVYYCLQATHFPWTFGGGTKLEIKR
notes: recombinant wild-type variable domains on mouse IgG2b/kappa
For B3, in test [5], binding was put at a Kd of 363 pM, the off-rate (koff) was determined as 0.0029 s⁻¹ and the on-rate (kon) came to 8.4e+06 M⁻¹ s⁻¹.

B4: 106.3 wt (Mouse IgG1) (antibody, V domains shown)
VH: QLVQSGPELRKPGETVKISCKGSGYTFTHYGINWVKQTPRKDLKWMGWINTHTGEPIYADDFKGRFAFSLETSANTAYLQINNLNNGDMGTYFCTRSHRFGLDYWGQGTSVTVSS
VL: DNVLTQSPPSLAVSLGQRATISCKASQSVDYNGDSYLNWYQQKPGQPPKFLIYAASNLESGIPARFSGSGSGTDFNLNIHPVEEEDAATYYCQQSNEDPFTFGSGTKLEIKR
notes: also called HB-12044
With B4, in test [6], the equilibrium dissociation constant (Kd) is 18 pM, the koff was found to be 0.00022 s⁻¹ and the kon was 1.2e+07 M⁻¹ s⁻¹.

B5: 500-2 (scFv)
scFv (VH-linker-VL with V5 and 6His tags), displayed on yeast: QVQLQQPGAELVRPGASVKLSCKASGYTFTSYWMNWVKQRPEQGLEWIGRIDPYDSETHYNQKFKDKAILTVDKSSSTAFVQLTSLTSEDSAVYYCVSDGYWGAGTTVTVSSGPAKELTPLKEAKVSDVVMTQTPLTLSVTTGQPASISCKSSQSLLDSDGKTYLNWLFQRPGESPKLLIYWTTKLESGVPDRFTGSGSGTDFTLKISRVEAEDLGVYYCLQATHFPWTFGGGTKLEIKRAAALESRGPFEGKPIPNPLLGLDSTRTGHHHHHH
notes: selected by on/off-rate sorting; member of group m17
With B5, the “Fold Improvement” value in test [7] amounted to 15 fold. The koff in test [8] came out at 0.00032 s⁻¹.

B6: L2 1 (scFv)
scFv (VH-linker-VL with V5 and 6His tags), displayed on yeast: QVQLQQPGAELVRPGASVKLSCKASGYTFTSYWMNWVKQRPEQGLEWIGRIDPYDSETHYNQKFKDKAILTVDKSSSTAFVQLTSLTSEDSAVYYCVSDGYWGAGTTVTVSSGPAKELTPLKEAKVSDVVMTQTPLTLSVTTGQPASISCKSSQSLLDSDGKTYLNWLFQRPGESPKLLIYQNTKLESGVPDRFTGSGSGTDFTLKISRVEAEDLGVYYCLQATHFPWTFGGGTKLEIKRAAALESRGPFEGKPIPNPLLGLDSTRTGHHHHHH
notes: selected by equilibrium sorting; member of group m17
B6: the “Fold Improvement” value in test [7] was 19 fold. In addition, the koff in test [8] came to 0.00025 s⁻¹.

B7: 500-10 (scFv)
scFv (VH-linker-VL with V5 and 6His tags), displayed on yeast: QVQLQQPGAELVRPGASVKLSCKASGYTFTSYWMNWVKQRPEQGLEWIGRIDPYDSETHYNQKFKDKAILTVDKSSSTAFVQLTSLTSEDSAVYYCVSDGYWGAGTTVTVSSGPAKELTPLKEAKVSDVVMTQTPLTLSVTTGQPASISCKSSQSLLDSDGKTYLNWLFQRPGESPKLLIYVTDILESGVPDRFTGSGSGTDFTLKISRVEAEDLGVYYCLQATHFPWTFGGGTKLEIKRAAALESRGPFEGKPIPNPLLGLDSTRTGHHHHHH
notes: as for B5
Consider B7, for which the “Fold Improvement” value in test [7] worked out at 10 fold. The molecule further displayed a koff in test [8] of 0.00049 s⁻¹.

B8: L2 4 (scFv)
scFv (VH-linker-VL with V5 and 6His tags), displayed on yeast: QVQLQQPGAELVRPGASVKLSCKASGYTFTSYWMNWVKQRPEQGLEWIGRIDPYDSETHYNQKFKDKAILTVDKSSSTAFVQLTSLTSEDSAVYYCVSDGYWGAGTTVTVSSGPAKELTPLKEAKVSDVVMTQTPLTLSVTTGQPASISCKSSQSLLDSDGKTYLNWLFQRPGESPKLLIYHTTKLESGVPDRFTGSGSGTDFTLKISRVEAEDLGVYYCLQATHFPWTFGGGTKLEIKRAAALESRGPFEGKPIPNPLLGLDSTRTGHHHHHH
notes: as for B6
Turning to B8, in test [7], the “Fold Improvement” value worked out at 4 fold. The same molecule gave an off-rate (koff) in test [8] of 0.0014 s⁻¹.

B9: L2 10 (scFv)
scFv (VH-linker-VL with V5 and 6His tags), displayed on yeast: QVQLQQPGAELVRPGASVKLSCKASGYTFTSYWMNWVKQRPEQGLEWIGRIDPYDSETHYNQKFKDKAILTVDKSSSTAFVQLTSLTSEDSAVYYCVSDGYWGAGTTVTVSSGPAKELTPLKEAKVSDVVMTQTPLTLSVTTGQPASISCKSSQSLLDSDGKTYLNWLFQRPGESPKLLIYRTNKLESGVPDRFTGSGSGTDFTLKISRVEAEDLGVYYCLQATHFPWTFGGGTKLEIKRAAALESRGPFEGKPIPNPLLGLDSTRTGHHHHHH
notes: selected by off-rate sorting; member of group m17
For B9, the “Fold Improvement” value in test [7] was 3 fold. In test [8], this molecule registered an off-rate (koff) of 0.0019 s⁻¹.

B10: L2 9 (scFv)
scFv (VH-linker-VL with V5 and 6His tags), displayed on yeast: QVQLQQPGAELVRPGASVKLSCKASGYTFTSYWMNWVKQRPEQGLEWIGRIDPYDSETHYNQKFKDKAILTVDKSSSTAFVQLTSLTSEDSAVYYCVSDGYWGAGTTVTVSSGPAKELTPLKEAKVSDVVMTQTPLTLSVTTGQPASISCKSSQSLLDSDGKTYLNWLFQRPGESPKLLIYVTDKLESGVPDRFTGSGSGTDFTLKISRVEAEDLGVYYCLQATHFPWTFGGGTKLEIKRAAALESRGPFEGKPIPNPLLGLDSTRTGHHHHHH
notes: as for B9
Regarding B10, the “Fold Improvement” value in test [7] is 10 fold. This molecule also gave a koff in test [8] of 0.0005 s⁻¹.

B11: L2 8 (scFv)
scFv (VH-linker-VL with V5 and 6His tags), displayed on yeast: QVQLQQPGAELVRPGASVKLSCKASGYTFTSYWMNWVKQRPEQGLEWIGRIDPYDSETHYNQKFKDKAILTVDKSSSTAFVQLTSLTSEDSAVYYCVSDGYWGAGTTVTVSSGPAKELTPLKEAKVSDVVMTQTPLTLSVTTGQPASISCKSSQSLLDSDGKTYLNWLFQRPGESPKLLIYWMNKLESGVPDRFTGSGSGTDFTLKISRVEAEDLGVYYCLQATHFPWTFGGGTKLEIKRAAALESRGPFEGKPIPNPLLGLDSTRTGHHHHHH
notes: as for B6
Regarding B11, the “Fold Improvement” value in test [7] is 28 fold. Further, the koff in test [8] was found to be 0.00017 s⁻¹.

B12: 500-1 (scFv)
scFv (VH-linker-VL with V5 and 6His tags), displayed on yeast: QVQLQQPGAELVRPGASVKLSCKASGYTFTSYWMNWVKQRPEQGLEWIGRIDPYDSETHYNQKFKDKAILTVDKSSSTAFVQLTSLTSEDSAVYYCVSDGYWGAGTTVTVSSGPAKELTPLKEAKVSDVVMTQTPLTLSVTTGQPASISCKSSQSLLDSDGKTYLNWLFQRPGESPKLLIYWMDKLESGVPDRFTGSGSGTDFTLKISRVEAEDLGVYYCLQATHFPWTFGGGTKLEIKRAAALESRGPFEGKPIPNPLLGLDSTRTGHHHHHH
notes: as for B5
As to B12, in test [7], the “Fold Improvement” value was found to be 9 fold. Also, the koff in test [8] is 0.00053 s⁻¹.

B13: L2 7 (scFv)
scFv (VH-linker-VL with V5 and 6His tags), displayed on yeast: QVQLQQPGAELVRPGASVKLSCKASGYTFTSYWMNWVKQRPEQGLEWIGRIDPYDSETHYNQKFKDKAILTVDKSSSTAFVQLTSLTSEDSAVYYCVSDGYWGAGTTVTVSSGPAKELTPLKEAKVSDVVMTQTPLTLSVTTGQPASISCKSSQSLLDSDGKTYLNWLFQRPGESPKLLIYWMTKLESGVPDRFTGSGSGTDFTLKISRVEAEDLGVYYCLQATHFPWTFGGGTKLEIKRAAALESRGPFEGKPIPNPLLGLDSTRTGHHHHHH
notes: as for B6
For the molecule B13, the “Fold Improvement” value in test [7] is 32 fold. The koff in test [8] was 0.00015 s⁻¹.
